The data set addresses BmrR;RNAP-sigmaA holoenzyme (Bacillus subtilis;Bacillus subtilis, UniProt P39075;P20429;P37870;P37871;O35011;O31718;P06224 …, |). The data set is described as follows: EMSA; TPP 500 uM; heparin challenge; stable open complex stated in peer review file; EMSA: 10 mM HEPES pH 7.5, 100 mM KCl, 5 mM MgCl2, 3 mM DTT, 1 h room temperature, 0.75 uM RNAP, 0.5 uM DNA, 0 or 2 uM BmrR, 0 or 500 uM TPP, heparin 100 ug/ml when indicated; 5% TBE gel. The conditions noted are these: protein: recombinant;native; tags: ;; chain copies: 2;2;1;1;1;1;1.

B1: Pbmr-2 (mixed)
DNA 1: TTTAGAAAGATTTTGCAAATCCGTTGACTCTCCCCTAGGAGGAGGTCTTATAATGGGAGCTGTCACGGATGC
DNA 2: GCATCCGTGACAGCTCCCATTATAAGACCTCCTCCTAGGGGAGAGTCAACGGATTTGCAAAATCTTTCTAAA
For B1, the binding result is “binds”.

B2: Pbmr-wt1 (dsDNA)
DNA 1: TTTAGAAAGATTTTGCAAATCCGTTGACTCTCCCCTAGGAGGAGGTCTTACAGTATAAGGGATACACACTTG
DNA 2: CAAGTGTGTATCCCTTATACTGTAAGACCTCCTCCTAGGGGAGAGTCAACGGATTTGCAAAATCTTTCTAAA
In the case of B2, the binding result is recorded as “binds”.
